Results published in paper PMC5529448.

Target: P02689
Assay: dynamic light scattering; triplicates at +25 °C; 0.6–0.9 mg/ml protein; 0.3 M NaCl, 20 mM HEPES pH 7.5; proteins stored on ice for 24 h after SEC
Conditions: other: dynamic light scattering

B1: human myelin protein P2 T51P (protein)
chain: MSNKFLGTWKLVSSENFDDYMKALGVGLATRKLGNLAKPTVIISKKGDIIPIRTESTFKNTEISFKLGQEFEETTADNRKTKSIVTLQRGSLNQVQRWDGKETTIKRKLVNGKMVAECKMKGVVCTRIYEKV
How did the Monomeric (%) turn out when B1 was run?
Its Monomeric (%) is 98.3%.
